Test results from publication PMC5095618 (Chemico-biological interactions, 2015).

B1: mouse anti-HuBChE monoclonal antibody 11D8 (antibody, V domains shown)
VH: QVQLQQSGAELARPGASVKLSCKASGYTFTSQWLQWVKQRPGQGLEWIGAIYPGDGDTRYTQKFKGKATLTADKSSSTAYMQLTNLAPEDSAVYYCARSSMDYWGQGTSVTVSS
VL: DILLTQSPAILSVSPGERVRLSCRASQSCGTSIYWYQQRTNGSPRLLIMYASEPFSGIPSRFSGSGSGTDFTLSINSVESEDIADYYCQQSNSWPWTFGGGTRLEIK
B2: mouse anti-HuBChE monoclonal antibody B2 12-1 (antibody, V domains shown)
VH: EVQLQQSGPELVKPGASVKISCKASGYTFTDYSMHWVKLSHGKSLEWIGYIYPYNDDTDYNQKFKTKATLTVDSSSSITYLELRSLTSEDSAVYYCARSDGYSYYFDYWGQGTTLTVSS
VL: DIVMTQSPATLSVTPGDRVSLSCRASQSISDYLHWYQQKSHESPRLLIKYASQSISGIPSRFSGGGSGSDFTLSINSVEPEDVGVYYCQNGHRFPLTFGAGTKLELK

Assays:
[1] = target: T1, Human butyrylcholinesterase (Homo sapiens, UniProt P06276); assay: SPR
T1 sequence (P06276 29-602): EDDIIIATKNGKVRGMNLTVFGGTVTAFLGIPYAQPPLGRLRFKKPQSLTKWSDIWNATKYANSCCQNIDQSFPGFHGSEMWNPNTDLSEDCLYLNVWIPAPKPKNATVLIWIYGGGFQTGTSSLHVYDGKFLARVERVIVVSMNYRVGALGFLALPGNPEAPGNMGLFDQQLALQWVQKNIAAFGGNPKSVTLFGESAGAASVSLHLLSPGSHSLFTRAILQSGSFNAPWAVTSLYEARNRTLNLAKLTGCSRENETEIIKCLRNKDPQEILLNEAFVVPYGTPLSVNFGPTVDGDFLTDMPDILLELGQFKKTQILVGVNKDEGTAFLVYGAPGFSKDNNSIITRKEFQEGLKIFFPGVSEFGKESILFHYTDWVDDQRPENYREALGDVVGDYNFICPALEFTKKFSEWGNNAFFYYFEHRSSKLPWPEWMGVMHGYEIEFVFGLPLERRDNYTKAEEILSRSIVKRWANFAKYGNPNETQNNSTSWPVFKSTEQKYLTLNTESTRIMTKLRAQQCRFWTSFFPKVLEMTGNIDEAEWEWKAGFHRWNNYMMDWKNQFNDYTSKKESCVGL

[2] = target: T1, Human butyrylcholinesterase; assay: ELISA
human albumin = human albumin (Homo sapiens, UniProt P02768); assay: affinity purification with mass spectrometry
Sequence of human albumin (P02768 25-609): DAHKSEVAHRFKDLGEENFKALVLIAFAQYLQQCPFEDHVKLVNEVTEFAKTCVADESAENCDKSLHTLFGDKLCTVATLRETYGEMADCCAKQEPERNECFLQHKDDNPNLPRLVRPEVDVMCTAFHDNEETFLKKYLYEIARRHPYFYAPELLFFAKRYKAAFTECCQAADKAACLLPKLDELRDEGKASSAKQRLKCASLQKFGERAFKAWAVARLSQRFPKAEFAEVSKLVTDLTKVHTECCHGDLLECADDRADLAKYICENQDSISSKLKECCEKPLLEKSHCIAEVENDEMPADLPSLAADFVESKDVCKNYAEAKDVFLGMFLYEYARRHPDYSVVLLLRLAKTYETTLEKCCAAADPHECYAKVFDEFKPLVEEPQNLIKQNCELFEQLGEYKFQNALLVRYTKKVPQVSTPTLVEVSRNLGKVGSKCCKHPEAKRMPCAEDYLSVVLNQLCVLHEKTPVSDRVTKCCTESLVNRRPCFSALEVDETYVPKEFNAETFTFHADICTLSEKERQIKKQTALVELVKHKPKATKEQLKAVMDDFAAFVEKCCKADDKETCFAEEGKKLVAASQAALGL

[3] = target: T1, Human butyrylcholinesterase; assay: BLI

Binder	Kd [1] [pM]	Kd [2] [pM]	binding result (human albumin)	kon [3] [M⁻¹ s⁻¹]
B1	900	260	binds	–
B2	140	1410	–	800000 to 1.2e+06
